± gives the half width of the 95% confidence interval.
What was measured:
[1] = folding stability dG unfold from trypsin proteolysis; higher = more stable
Summary of the method: (§1)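 Unfolding free energy was derived, per protease or combined, by relating Bayesian-fitted K50 values from sequencing counts to a sequence-predicted unfolded-state K50 and a shared folded-state K50. The underlying digests exposed cysteine-free mini-proteins under 80 residues, in a PA-tagged cDNA display construct, to trypsin and chymotrypsin at 11 threefold-diluted concentrations and to a no-protease condition. A filter kept only designs with AlphaFold2 dimer inter-PAE above 15.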

[2] = folding stability dG unfold (combined trypsin and chymotrypsin); higher = more stable
Summary of the method: as §1

[3] = folding stability dG unfold from chymotrypsin proteolysis; higher = more stable
Summary of the method: as §1

SAGGMMIVIRIPNKPVEFEINGWKIEYNPDEGTIIIPFPPEMLDQLEKLPGLEGIKDIEIIPPGELKSAGGS [r8_493_TrROS]
folding stability dG unfold [1]: 1.22 ± 0.029 kcal/mol | folding stability dG unfold [2]: 2.12 ± 0.14 kcal/mol | folding stability dG unfold [3]: 2.56 ± 0.051 kcal/mol

SAGKKKVLLAVDPENNALVLVEYETVGDVTFVRSLVFHGNTTTETLGLVRVIEPGKTEKLLISVPIPPSAGG [r19_292_TrMRF]
folding stability dG unfold [1]: 2.07 ± 0.047 kcal/mol | folding stability dG unfold [2]: 2.26 ± 0.13 kcal/mol | folding stability dG unfold [3]: 2.3 ± 0.05 kcal/mol

SAGGDSVYIPGSISEAIDALRENPNKTVHIMSPDGYYIKITVKWDGDGDYKIDIKWQPPPPPPDPEDKSAGG [r13_56_TrROS]
folding stability dG unfold [1]: 2.23 ± 0.33 kcal/mol | folding stability dG unfold [2]: 2.23 ± 0.39 kcal/mol | folding stability dG unfold [3]: 2.3 ± 0.21 kcal/mol

SAGGSAGGSAEEVTVTVKIERTTEDGEKVEETITVTVPAEKLDELKKAAEEAGFTVVEVTPSAGGSAGGSAG [r3_453_TrROS_Hall]
folding stability dG unfold [1]: 2.68 ± 0.14 kcal/mol | folding stability dG unfold [2]: 2.38 ± 0.1 kcal/mol | folding stability dG unfold [3]: 2.19 ± 0.14 kcal/mol

SAGGSAGGSAGGSMSVSSVGSSSGAGMIVKTTYFPGSGGTTVVLIEPASGVVLATTPVPGSAGGSAGGSAGG [r7_154_JUSTAS]
folding stability dG unfold [1]: 0.493 ± 0.04 kcal/mol | folding stability dG unfold [2]: 0.374 ± 0.13 kcal/mol | folding stability dG unfold [3]: 0.272 ± 0.079 kcal/mol

SAGGSAEITEIEIEEEGGRLRVRATVTNENGETFEFEAEIELPPPPPPEEVTLERDPETDEWKEVTSAGGSA [r15_335_TrROS_Hall]
folding stability dG unfold [1]: 2.17 ± 0.06 kcal/mol | folding stability dG unfold [2]: 2.22 ± 0.12 kcal/mol | folding stability dG unfold [3]: 2.39 ± 0.087 kcal/mol

SAGGSAGGSAMLYRITVRNADGEKLEIVVEMSEDEVRALAEELRKAGYEVRVEPIPEGEEPSAGGSAGGSAG [r3_35_TrROS_Hall]
folding stability dG unfold [1]: 4.89 ± 0.21 kcal/mol | folding stability dG unfold [2]: 4.8 ± 0.15 kcal/mol | folding stability dG unfold [3]: 4.79 ± 0.11 kcal/mol

SAGGSAGGSAGGDNVLILVKLPKGYRVYSINDPEVLKAVTLKELKDELEKKTGYPVEVLPSAGGSAGGSAGG [r7_259_TrMRF]
folding stability dG unfold [1]: 1.48 ± 0.041 kcal/mol | folding stability dG unfold [2]: 1.57 ± 0.22 kcal/mol | folding stability dG unfold [3]: 1.66 ± 0.18 kcal/mol

SAGGSPEVKIEIEVTERVTVFDENGKPVEEVLVVKAKITFPDGTTATITAFFYEGKWFITSIELEPSAGGSA [r2_158_TrROS_Hall]
folding stability dG unfold [1]: 3.84 ± 0.25 kcal/mol | folding stability dG unfold [2]: 4.62 ± 0.27 kcal/mol | folding stability dG unfold [3]: 4.83 ± 0.24 kcal/mol

SAGGKKIVLFVGPPELVEELKKAYPDLPFVPIPVEVLENPEPAAEIIKELKEKGYEVVVYNFPDLKESAGGS [r8_376_TrMRF]
folding stability dG unfold [1]: 1.37 ± 0.057 kcal/mol | folding stability dG unfold [2]: 2.21 ± 0.071 kcal/mol | folding stability dG unfold [3]: 2.562 ± 0.021 kcal/mol

SAGGSMVRVTIEDKDGKEHWIMIPPGMDPNDVKQQIKKFLEDNGWKVKDVEVETYPPGWAMIRVRVSAGGSA [r2_148_TrROS]
folding stability dG unfold [1]: 1.88 ± 0.021 kcal/mol | folding stability dG unfold [2]: 2.2 ± 0.052 kcal/mol | folding stability dG unfold [3]: 2.33 ± 0.031 kcal/mol

SAMDIGPEERAELLLRTLANIAKEEIEKGDLEKAKIFVINGIAEENPPLAERILKEAKELGLPVIILPESAG [r14_908_TrMRF]
folding stability dG unfold [1]: 0.659 ± 0.1 kcal/mol | folding stability dG unfold [2]: 0.981 ± 0.059 kcal/mol | folding stability dG unfold [3]: 1.13 ± 0.076 kcal/mol

SAGGSAGGSAGMTIKEDPKTGTRVVRLPDGSVLYIEEKGDKIKKVYSDPVPPVPPGNPALASAGGSAGGSAG [r3_406_JUSTAS]
folding stability dG unfold [1]: 0.217 ± 0.026 kcal/mol | folding stability dG unfold [2]: 0.574 ± 0.061 kcal/mol | folding stability dG unfold [3]: 0.734 ± 0.048 kcal/mol

SAGGSAGGSAGMMVVRAKIKLPNGEVLEIENMSLEEILALAKEKGYEIVDIEVVAPDEEPSAGGSAGGSAGG [r11_283_TrMRF]
folding stability dG unfold [1]: 4.77 ± 0.77 kcal/mol | folding stability dG unfold [2]: 4.37 ± 0.26 kcal/mol | folding stability dG unfold [3]: 4.07 ± 0.14 kcal/mol

SAGGMESTSIPLEFKFEGDEEKAKKKVEEEAKKIAEEKGIEIKIEVKFDPNKPTATVTILVKGKEVEESAGG [r13_845_JUSTAS]
folding stability dG unfold [1]: -0.411 ± 0.058 kcal/mol | folding stability dG unfold [2]: -0.285 ± 0.22 kcal/mol | folding stability dG unfold [3]: -0.281 ± 0.25 kcal/mol

SAGGSAGGWKIIEVDPKKGVVMIEMDPEEGNWYVRVPNGPIQRFDSPEEIEEKFGFPVEIYPLPSAGGSAGG [r6_753_TrROS]
folding stability dG unfold [1]: 1.3 ± 0.098 kcal/mol | folding stability dG unfold [2]: 1.14 ± 0.17 kcal/mol | folding stability dG unfold [3]: 0.816 ± 0.092 kcal/mol

SAGGSAGGSAGIKIVAPSPELADMIAKEIAKEFGLPGKIKDIEIEVIPYKPTPNGGYQPYSAGGSAGGSAGG [r17_237_TrROS]
folding stability dG unfold [1]: -0.14 ± 0.26 kcal/mol | folding stability dG unfold [2]: -0.383 ± 0.81 kcal/mol | folding stability dG unfold [3]: -0.363 ± 0.75 kcal/mol

SAGGSAGGSGVEITLPNKDELIEYLKKKFAEKGGKIKKIKIEPIGPNMYKALIETDPNDPYFKSAGGSAGGS [r12_647_TrMRF]
folding stability dG unfold [1]: 0.759 ± 0.069 kcal/mol | folding stability dG unfold [2]: 0.611 ± 0.13 kcal/mol | folding stability dG unfold [3]: 0.532 ± 0.17 kcal/mol

SAGGSAGGSAGGSIVIEVDTLEEAKKLAEKLNLKVTEVKEVDGKLYVKIEIKSPEELKKSAGGSAGGSAGGS [r10_218_TrROS_Hall]
folding stability dG unfold [1]: 0.204 ± 0.11 kcal/mol | folding stability dG unfold [2]: 1.53 ± 0.12 kcal/mol | folding stability dG unfold [3]: 2.002 ± 0.018 kcal/mol

MDVKIEPYRDPETGELYYKAVVKFKDGKEKLIEVKVPPNGKPIAKIYDPNGKLLAEKEFDSIEEALKEALAS [r1_478_TrMRF]
folding stability dG unfold [1]: 3.3 ± 0.35 kcal/mol | folding stability dG unfold [2]: 3.91 ± 0.37 kcal/mol | folding stability dG unfold [3]: 4.24 ± 0.16 kcal/mol

SAENGKWVEVELPIEIWMGNDQLDNFIEEARDIARKHGFEITDIPIKYEPSPDGYRRATIPVKITVPLPSAG [r14_109_TrROS]
folding stability dG unfold [1]: 1.06 ± 0.04 kcal/mol | folding stability dG unfold [2]: 1.13 ± 0.14 kcal/mol | folding stability dG unfold [3]: 1.06 ± 0.088 kcal/mol

Source: the supplement of paper PMC12764529
